Measured values from patent US20250262242A1 (published 2025).
Residue numbers refer to the chain shown, from its start.

Tests used:
[1] = target: T1, EBV LMP2 peptide on HLA-A*02:01 (human); test: activation reporter or marker
T1 peptide: CLGGLLTMV

[2] = target: T2, mutant splice factor-induced (SF3B1mut) splice variant of MAPK8IP2 peptide on HLA-A*02:01 (human); test: killing
T2 peptide: RLPGVLPRA

[3] = target: T2, mutant splice factor-induced (SF3B1mut) …; test: multimer staining
[4] = target: T3, EBV BRLF1 peptide on HLA-A*02:01 (human); test: activation reporter or marker
T3 peptide: YVLDHLIVV

[5] = target: T4, HERV-K gag protein peptide on HLA-A*02:01 (human); test: killing
T4 peptide: FLQFKTWWI

[6] = target: T5, EBV LMP2 (LMP2A) peptide on HLA-A*02:01 (human); test: activation reporter or marker
T5 peptide: MGSLEMVPM

[7] = target: T6, EBV BZLF1 peptide on HLA-B*35:01 (human); test: activation reporter or marker
T6 peptide: EPLPQGQLTAY

B1: TCR_A0064 (TCR, V domains shown)
Valpha: GQQVMQIPQYQHVQEGEDFTTYCNSSTTLSNIQWYKQRPGGHPVFLIQLVKSGEVKKQKRLTFQFGEAKKNSSLHITATQTTDVGTYFCAGAGAGSYQLTFGKGTKLSVIP
Vbeta: KAGVTQTPRYLIKTRGQQVTLSCSPISGHRSVSWYQQTPGQGLQFLFEYFSETQRNKGNFPGRFSGRQFSNSRSEMNVSTLELGDSALYLCASSLEGQASSYEQYFGPGTRLTVT
binding result [1]: recognises

B2: TCR_A0066 (TCR, V domains shown)
Valpha: B1 Valpha
Vbeta: B1 Vbeta with L95A
binding result [1]: recognises

B3: TCR_A0131 (TCR, V domains shown)
Valpha: AQTVTQSQPEMSVQEAETVTLSCTYDTSENNYYLFWYKQPPSRQMILVIRQEAYKQQNATENRFSVNFQKAAKSFSLKISDSQLGDTAMYFCAFMLIDSGTYKYIFGTGTRLKVLA
Vbeta: EAQVTQNPRYLITVTGKKLTVTCSQNMNHEYMSWYRQDPGLGLRQIYYSMNVEVTDKGDVPEGYKVSRKEKRNFPLILESPSPNQTSLYFCASSLGQGTETQYFGPGTRLLVL
binding result [2]: recognises

B4: TCR_A0358 (TCR, V domains shown)
Valpha: B3 Valpha with L96G, I97P
Vbeta: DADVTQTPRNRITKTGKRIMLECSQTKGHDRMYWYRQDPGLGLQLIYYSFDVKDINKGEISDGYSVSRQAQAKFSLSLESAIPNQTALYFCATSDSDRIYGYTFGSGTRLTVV
binding result [3]: recognises

B5: TCR_A0001 (TCR, V domains shown)
Valpha: AQSVSQHNHHVILSEAASLELGCNYSYGGTVNLFWYVQYPGQHLQLLLKYFSGDPLVKGIKGFEAEFIKSKFSFNLRKPSVQWSDTAEYFCAVKDTDKLIFGTGTRLQVFP
Vbeta: not shown
binding result [4]: recognises

B6: TCR_A0002 (TCR, V domains shown)
Valpha: B5 Valpha
Vbeta: DTAVSQTPKYLVTQMGNDKSIKCEQNLGHDTMYWYKQDSKKFLKIMFSYNNKELIINETVPNRFSPKSPDKAHLNLHINSLELGDSAVYFCASSPDFNEQFFGPGTRLTVL
binding result [4]: recognises

B7: TCR_A0004 (TCR, V domains shown)
Valpha: B5 Valpha
Vbeta: not shown
binding result [4]: recognises

B8: TCR_A0130 (TCR, V domains shown)
Valpha: AQTVTQSQPEMSVQEAETVTLSCTYDTSESNYYLFWYKQPPSRQMILVIRQEAYKQQNATENRFSVNFQKAAKSFSLKISDSQLGDTAMYFCAFMIPDSNYQLIWGAGTKLIIKP
Vbeta: ETGVTQTPRHLVMGMTNKKSLKCEQHLGHNAMYWYKQSAKKPLELMFVYNFKEQTENNSVPSRFSPECPNSSHLFLHLHTLQPEDSALYLCASSQVGTSGRGGELFFGEGSRLTVL
binding result [2]: recognises

B9: TCR_A0100 (TCR, V domains shown)
Valpha: KQEVTQIPAALSVPEGENLVLNCSFTDSAIYNLQWFRQDPGKGLTSLLLIQSSQREQTSGRLNASLDKSSGRSTLYIAASQPGDSATYLCAVGGNNNDMRFGAGTRLTVKP
Vbeta: AAGVIQSPRHLIKEKRETATLKCYPIPRHDTVYWYQQGPGQDPQFLISFYEKMQSDKGSIPDRFSAQQFSDYHSELNMSSLELGDSALYFCASSLINTEAFFGQGTRLTVV
binding result [5]: recognises

B10: TCR_A0003 (TCR, V domains shown)
Valpha: AQSVSQHNHHVILSEAASLELGCNYSYGGTVNLFWYVQYPGQHLQLLLKYFSGDPLVKGIKGFEAEFIKSKFSFNLRKPSVQWSDTAEYFCAGGAAGNKLTFGGGTRVLVKP
Vbeta: EAGVAQSPRYKIIEKRQSVAFWCNPISGHATLYWYQQILGQGPKLLIQFQNNGVVDDSQLPKDRFSAERLKGVDSTLKIQPAKLEDSAVYLCASSSPLGGFAGANVLTFGAGSRLTVL
binding result [4]: recognises

B11: TCR_A0015 (TCR, V domains shown)
Valpha: AQSVTQLDSQVPVFEEAPVELRCNYSSSVSVYLFWYVQYPNQGLQLLLKYLSGSTLVKGINGFEAEFNKSQTSFHLRKPSVHISDTAEYFCAVSALSYNQGGKLIFGQGTELSVKP
Vbeta: DAGVIQSPRHEVTEMGQEVTLRCKPISGHNSLFWYRQTMMRGLELLIYFNNNVPIDDSGMPEDRFSAKMPNASFSTLKIQPSEPRDSAVYFCASSWTGNEQYFGPGTRLTVT
binding result [6]: recognises

B12: TCR_A0005 (TCR, V domains shown)
Valpha: AQKITQTQPGMFVQEKEAVTLDCTYDTSDQSYGLFWYKQPSSGEMIFLIYQGSYDEQNATEGRYSLNFQKARKSANLVISASQLGDSAMYFCAMREGGNFNKFYFGSGTKLNVKP
Vbeta: SAVISQKPSRDICQRGTSLTIQCQVDSQVTMMFWYRQQPGQSLTLIATANQGSEATYESGFVIDKFPISRPNLTFSTLTVSNMSPEDSSIYLCSVGGTSGTLPANEQFFGPGTRLTVL
binding result [4]: recognises

B13: TCR_A0061 (TCR, V domains shown)
Valpha: KQEVTQIPAALSVPEGENLVLNCSFTDSAIYNLQWFRQDPGKGLTSLLLIQSSQREQTSGRLNASLDKSSGRSTLYIAASQPGDSATYLCAVLMDSNYQLIWGAGTKLIIKP
Vbeta: DAGITQSPRYKITETGRQVTLMCHQTWSHSYMFWYRQDLGHGLRLIYYSAAADITDKGEVPDGYVVSRSKTENFPLTLESATRSQTSVYFCASSSDGMNTEAFFGQGTRLTVV
binding result [1]: recognises

B14: TCR_A0099 (TCR, V domains shown)
Valpha: ILNVEQSPQSLHVQEGDSTNFTCSFPSSNFYALHWYRWETAKSPEALFVMTLNGDEKKKGRISATLNTKEGYSYLYIKGSQPEDSATYLCAVNAGGTSYGKLTFGQGTILTVHP
Vbeta: EAGVAQSPRYKIIEKRQSVAFWCNPISGHATLYWYQQILGQGPKLLIQFQNNGVVDDSQLPKDRFSAERLKGVDSTLKIQPAKLEDSAVYLCASSSDWTANNEQFFGPGTRLTVL
binding result [7]: recognises
